According to US20050176069A1 (PHARMACIA AND UPJOHN, published 2005):
Where no end group is shown, it is not given here.

Legend:
CEGPCR16 = molecular target: T1, CEGPCR16 (C. elegans); experiment: cell-based or functional assay
T1 chain: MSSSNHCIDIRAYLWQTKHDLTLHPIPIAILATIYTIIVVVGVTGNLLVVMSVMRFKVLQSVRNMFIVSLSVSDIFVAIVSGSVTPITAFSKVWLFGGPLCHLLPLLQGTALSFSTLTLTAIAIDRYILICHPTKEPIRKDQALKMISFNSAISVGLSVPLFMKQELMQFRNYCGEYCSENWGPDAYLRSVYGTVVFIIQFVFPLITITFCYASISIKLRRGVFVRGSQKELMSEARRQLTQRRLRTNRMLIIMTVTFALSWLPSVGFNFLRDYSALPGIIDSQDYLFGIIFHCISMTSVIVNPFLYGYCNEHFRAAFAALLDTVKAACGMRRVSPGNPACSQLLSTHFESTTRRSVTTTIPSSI

CEGPCR4 = molecular target: T2, CEGPCR4 (C. elegans); experiment: competition binding assay, CEGPCR4/CHO membranes, vs [125I-Y]DVPGVLRF-NH2
T2 construct: Expressed in CHO cells
T2 chain: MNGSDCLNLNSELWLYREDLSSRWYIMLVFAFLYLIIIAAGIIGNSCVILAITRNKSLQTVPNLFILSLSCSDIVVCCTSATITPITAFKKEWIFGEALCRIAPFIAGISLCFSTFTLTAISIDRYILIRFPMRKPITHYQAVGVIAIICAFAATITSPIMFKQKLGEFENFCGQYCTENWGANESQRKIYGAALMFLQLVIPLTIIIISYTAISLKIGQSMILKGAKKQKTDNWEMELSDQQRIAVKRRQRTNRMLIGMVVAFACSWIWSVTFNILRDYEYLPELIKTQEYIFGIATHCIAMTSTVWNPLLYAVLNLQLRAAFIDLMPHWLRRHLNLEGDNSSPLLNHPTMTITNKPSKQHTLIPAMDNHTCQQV

B1: SVPGVLRF-NH2 (peptide)
peptide: SVPGVLRF-NH2
Q: Which “EC50, [35S]GTPγS assay” value (CEGPCR16) does the source give for B1 here?
A: 64 nM

Q: And the IC50 (CEGPCR4)?
A: 0.5 to 10 nM
